# Experimental data as given in article PMC8362844 (Molecular pharmaceutics, 2020).
# B1: recombinant human alpha-N-acetylglucosamine-6-sulfatase with C-terminal c-myc tag (enzyme, UniProt P15586-1 37-552, looked up)
# chain: VFGVAAGTRRPNVVLLLTDDQDEVLGGMTPLKKTKALIGEMGMTFSSAYVPSALCCPSRASILTGKYPHNHHVVNNTLEGNCSSKSWQKIQEPNTFPAILRSMCGYQTFFAGKYLNEYGAPDAGGLEHVPLGWSYWYALEKNSKYYNYTLSINGKARKHGENYSVDYLTDVLANVSLDFLDYKSNFEPFFMMIATPAPHSPWTAAPQYQKAFQNVFAPRNKNFNIHGTNKHWLIRQAKTPMTNSSIQFLDNAFRKRWQTLLSVDDLVEKLVKRLEFTGELNNTYIFYTSDNGYHTGQFSLPIDKRQLYEFDIKVPLLVRGPGIKPNQTSKMLVANIDLGPTILDIAGYDLNKTQMDGMSLLPILRGASNLTWRSDVLVEYQGEGRNVTDPTCPSLSPGVSQCFPDCVCEDAYNNTYACVRTMSALWNLQYCEFDDQEVFVEVYNLTADPDQITNIAKTIDPELLGKMNYRLMMLQSCSGPTCRTPGVFDPGYRFDPRLMFSNRGSVRTRRFSKHLL
# modifications: N-glycosylated with high-mannose residues; mannose-6 phosphorylated at approximately 0.87% (W/W)
# Target: the molecule itself
# Assay: native gel or EMSA
protein,measurement,value
B1,stoichiometry N,2
